Measurements taken from PMC12394722, “Regulatory role of the N-terminal intrinsically disordered region of the DEAD-box RNA helicase DDX3X in selective RNA recognition”.

Experiments:
[1] = biological target: T1, MBP-FL DDX3X (human, UniProt O00571 1-662); assay: EMSA; little to no shift; 1 mM ATP-Mg; EMSA: 20 mM K-phosphate pH 7.0, 125 mM KCl, 1 mM DTT, 0.005% Tween-20, 10% glycerol (1 mM ATP-Mg for MBP-FL/Core-C), gel at room temperature; ITC: 20 mM K-phosphate pH 7.0, 50 mM KCl, 25 C; NMR: 200 mM KCl (also 120 mM), 10 C, 50 uM; settings: protein: recombinant, tags: N-terminal His6-MBP
[2] = biological target: T2, RR-3 fragment (human, UniProt O00571 106-127); assay: NMR; little to no change; EMSA: 20 mM K-phosphate pH 7.0, 125 mM KCl, 1 mM DTT, 0.005% Tween-20, 10% glycerol (1 mM ATP-Mg for MBP-FL/Core-C), gel at room temperature; ITC: 20 mM K-phosphate pH 7.0, 50 mM KCl, 25 C; NMR: 200 mM KCl (also 120 mM), 10 C, 50 uM; settings: protein: recombinant, tags: His6-SUMO tag cleaved
T2 chain: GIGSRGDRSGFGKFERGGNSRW

[3] = biological target: T3, RR-1 fragment (human, UniProt O00571 31-61); assay: as above; settings: protein: recombinant, tags: His6-SUMO tag cleaved
[4] = biological target: T4, RR-2 fragment (human, UniProt O00571 73-102); assay: as above; settings: protein: recombinant, tags: His6-SUMO tag cleaved
[5] = biological target: T2, RR-3 fragment; assay: NMR; smaller reduction than telomeric GQ; EMSA: 20 mM K-phosphate pH 7.0, 125 mM KCl, 1 mM DTT, 0.005% Tween-20, 10% glycerol (1 mM ATP-Mg for MBP-FL/Core-C), gel at room temperature; ITC: 20 mM K-phosphate pH 7.0, 50 mM KCl, 25 C; NMR: 200 mM KCl (also 120 mM), 10 C, 50 uM; settings: protein: recombinant; tags: His6-SUMO tag cleaved; G4 monomer
[6] = biological target: T3, RR-1 fragment; assay: NMR; EMSA: 20 mM K-phosphate pH 7.0, 125 mM KCl, 1 mM DTT, 0.005% Tween-20, 10% glycerol (1 mM ATP-Mg for MBP-FL/Core-C), gel at room temperature; ITC: 20 mM K-phosphate pH 7.0, 50 mM KCl, 25 C; NMR: 200 mM KCl (also 120 mM), 10 C, 50 uM; settings: protein: recombinant, tags: His6-SUMO tag cleaved
[7] = biological target: T4, RR-2 fragment; assay: as above; settings: protein: recombinant, tags: His6-SUMO tag cleaved
[8] = biological target: T5, DDX3X N-IDR (human, UniProt O00571 1-132); assay: ITC; 50 mM KCl; EMSA: 20 mM K-phosphate pH 7.0, 125 mM KCl, 1 mM DTT, 0.005% Tween-20, 10% glycerol (1 mM ATP-Mg for MBP-FL/Core-C), gel at room temperature; ITC: 20 mM K-phosphate pH 7.0, 50 mM KCl, 25 C; NMR: 200 mM KCl (also 120 mM), 10 C, 50 uM; settings: protein: recombinant; tags: His6-SUMO tag cleaved (Ulp1); G4 monomer
[9] = biological target: T5, DDX3X N-IDR; assay: NMR; EMSA: 20 mM K-phosphate pH 7.0, 125 mM KCl, 1 mM DTT, 0.005% Tween-20, 10% glycerol (1 mM ATP-Mg for MBP-FL/Core-C), gel at room temperature; ITC: 20 mM K-phosphate pH 7.0, 50 mM KCl, 25 C; NMR: 200 mM KCl (also 120 mM), 10 C, 50 uM; settings: protein: recombinant, tags: His6-SUMO tag cleaved (Ulp1)
[10] = biological target: T5, DDX3X N-IDR; assay: EMSA; little to no shift; 125 mM KCl; EMSA: 20 mM K-phosphate pH 7.0, 125 mM KCl, 1 mM DTT, 0.005% Tween-20, 10% glycerol (1 mM ATP-Mg for MBP-FL/Core-C), gel at room temperature; ITC: 20 mM K-phosphate pH 7.0, 50 mM KCl, 25 C; NMR: 200 mM KCl (also 120 mM), 10 C, 50 uM; settings: protein: recombinant; tags: His6-SUMO tag cleaved (Ulp1); label: 3'-FAM
[11] = biological target: T5, DDX3X N-IDR; assay: ITC; 50 mM KCl; dimer concentration; EMSA: 20 mM K-phosphate pH 7.0, 125 mM KCl, 1 mM DTT, 0.005% Tween-20, 10% glycerol (1 mM ATP-Mg for MBP-FL/Core-C), gel at room temperature; ITC: 20 mM K-phosphate pH 7.0, 50 mM KCl, 25 C; NMR: 200 mM KCl (also 120 mM), 10 C, 50 uM; settings: protein: recombinant; tags: His6-SUMO tag cleaved (Ulp1); parallel G4, dimer of 2 strands
[12] = biological target: T2, RR-3 fragment; assay: NMR; EMSA: 20 mM K-phosphate pH 7.0, 125 mM KCl, 1 mM DTT, 0.005% Tween-20, 10% glycerol (1 mM ATP-Mg for MBP-FL/Core-C), gel at room temperature; ITC: 20 mM K-phosphate pH 7.0, 50 mM KCl, 25 C; NMR: 200 mM KCl (also 120 mM), 10 C, 50 uM; settings: protein: recombinant; tags: His6-SUMO tag cleaved; parallel G4, dimer of 2 strands
[13] = biological target: MBP-Core-C DDX3X (human, UniProt O00571 132-662); assay: EMSA; 1 mM ATP-Mg; EMSA: 20 mM K-phosphate pH 7.0, 125 mM KCl, 1 mM DTT, 0.005% Tween-20, 10% glycerol (1 mM ATP-Mg for MBP-FL/Core-C), gel at room temperature; ITC: 20 mM K-phosphate pH 7.0, 50 mM KCl, 25 C; NMR: 200 mM KCl (also 120 mM), 10 C, 50 uM; settings: protein: recombinant, tags: N-terminal His6-MBP, label: 5'-FAM
[14] = biological target: T1, MBP-FL DDX3X; assay: as above; settings: protein: recombinant, tags: N-terminal His6-MBP, label: 5'-FAM
[15] = biological target: T5, DDX3X N-IDR; assay: EMSA; 125 mM KCl; EMSA: 20 mM K-phosphate pH 7.0, 125 mM KCl, 1 mM DTT, 0.005% Tween-20, 10% glycerol (1 mM ATP-Mg for MBP-FL/Core-C), gel at room temperature; ITC: 20 mM K-phosphate pH 7.0, 50 mM KCl, 25 C; NMR: 200 mM KCl (also 120 mM), 10 C, 50 uM; settings: protein: recombinant, tags: His6-SUMO tag cleaved (Ulp1)
[16] = biological target: T5, DDX3X N-IDR; assay: NMR; 200 mM KCl; EMSA: 20 mM K-phosphate pH 7.0, 125 mM KCl, 1 mM DTT, 0.005% Tween-20, 10% glycerol (1 mM ATP-Mg for MBP-FL/Core-C), gel at room temperature; ITC: 20 mM K-phosphate pH 7.0, 50 mM KCl, 25 C; NMR: 200 mM KCl (also 120 mM), 10 C, 50 uM; settings: protein: recombinant; tags: His6-SUMO tag cleaved (Ulp1); label: 5'-FAM in EMSA; G4, heterogeneous
[17] = parallel G4, dimer of 2 strands

T3 sequence (O00571 31-61): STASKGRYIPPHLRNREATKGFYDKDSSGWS
T1 sequence (O00571 whole entry, the tested form may be a part): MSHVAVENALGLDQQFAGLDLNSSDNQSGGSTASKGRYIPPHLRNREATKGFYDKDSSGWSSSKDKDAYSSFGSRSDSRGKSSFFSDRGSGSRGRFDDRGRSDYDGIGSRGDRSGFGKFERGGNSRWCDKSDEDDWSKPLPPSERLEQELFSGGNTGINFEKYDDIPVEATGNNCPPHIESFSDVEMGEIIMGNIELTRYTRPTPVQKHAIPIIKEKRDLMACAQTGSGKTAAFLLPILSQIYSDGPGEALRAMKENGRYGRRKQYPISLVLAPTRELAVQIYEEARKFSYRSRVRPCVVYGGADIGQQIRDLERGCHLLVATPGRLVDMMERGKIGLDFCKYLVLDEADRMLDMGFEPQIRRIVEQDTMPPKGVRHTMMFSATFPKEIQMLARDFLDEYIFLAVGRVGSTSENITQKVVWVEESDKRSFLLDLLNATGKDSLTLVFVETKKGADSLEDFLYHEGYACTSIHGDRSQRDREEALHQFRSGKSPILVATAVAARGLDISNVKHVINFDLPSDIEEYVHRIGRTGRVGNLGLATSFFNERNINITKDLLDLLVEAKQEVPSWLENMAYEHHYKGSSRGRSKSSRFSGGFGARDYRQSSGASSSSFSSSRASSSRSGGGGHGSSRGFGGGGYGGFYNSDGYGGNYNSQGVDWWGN
T4 sequence (O00571 73-102): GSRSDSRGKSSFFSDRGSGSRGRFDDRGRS
T5 sequence (O00571 1-132): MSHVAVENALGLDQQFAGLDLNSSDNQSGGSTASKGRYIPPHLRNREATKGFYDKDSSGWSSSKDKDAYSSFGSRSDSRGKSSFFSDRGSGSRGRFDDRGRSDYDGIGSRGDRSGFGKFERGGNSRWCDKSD
MBP-Core-C DDX3X, sequence (O00571 132-662): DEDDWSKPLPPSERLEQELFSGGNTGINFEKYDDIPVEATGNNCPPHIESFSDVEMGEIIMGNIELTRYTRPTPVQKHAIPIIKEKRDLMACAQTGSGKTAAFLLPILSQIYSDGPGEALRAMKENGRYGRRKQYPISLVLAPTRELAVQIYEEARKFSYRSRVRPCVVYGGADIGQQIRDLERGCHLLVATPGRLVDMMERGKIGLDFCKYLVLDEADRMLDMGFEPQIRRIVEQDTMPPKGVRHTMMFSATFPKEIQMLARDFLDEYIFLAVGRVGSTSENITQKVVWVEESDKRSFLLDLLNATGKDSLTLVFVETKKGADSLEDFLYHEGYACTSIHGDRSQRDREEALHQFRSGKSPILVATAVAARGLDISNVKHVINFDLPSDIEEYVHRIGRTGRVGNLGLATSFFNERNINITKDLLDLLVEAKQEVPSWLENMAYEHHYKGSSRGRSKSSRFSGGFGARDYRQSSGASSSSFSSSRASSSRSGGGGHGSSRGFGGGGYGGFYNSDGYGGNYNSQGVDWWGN

B1: FAM-14mer tetraloop (structured_RNA)
RNA: GGCACUUCGGUGCC
B1: no binding ([1]; label: 5'-FAM, hairpin).

B2: poly-U10 (ssRNA)
RNA: UUUUUUUUUU
B2: no binding [2]; no binding [3]; no binding [4].

B3: NRAS GQ RNA (structured_RNA)
RNA: UGUGGGAGGGGCGGGUCUGGGUGC
B3: binds [5]; binds ([6]; G4 monomer); binds ([7]; G4 monomer). The Kd [8] was 1400 nM.

B4: MITF 62-86 (structured_RNA)
RNA: GAAAGUAGAGGGAGGGAUAGUCUAC
B4: binds ([9]; G4).

B5: poly-U12 (ssRNA)
RNA: UUUUUUUUUUUU
B5: no binding ([1]; label: 3'-FAM); no binding [10].

B6: MITF 7-31 (ssRNA)
RNA: AUACCUUGUUUAUAGUACCUUCUCU
B6: no binding ([9]; non-GQ).

B7: GC-14mer dsRNA (NMR) (dsRNA)
RNA 1: GGGCGGGCCCGCCC
RNA 2: GGGCGGGCCCGCCC
B7: no binding ([2]; blunt, self-complementary); no binding ([3]; blunt, self-complementary); no binding ([4]; blunt, self-complementary).

B8: telomeric GQ RNA (structured_RNA)
RNA: UAGGGUUAGGGU
For B8, the Kd [11] was 3400 nM, the binding result [12] was “binds” and the binding result [6, 17] was “binds”. B8: binds [7, 17].

B9: FAM-telomeric GQ RNA (structured_RNA)
RNA: UAGGGUUAGGGU
Binder B9 has a Kd [13, 17] of 579 ± 69 nM, a Kd [14, 17] of 54 ± 14 nM and a Kd ([15]; label: 5'-FAM, parallel G4, dimer of 2 strands) of 1000 ± 200 nM.

B10: ODC1 150-174 (structured_RNA)
RNA: AGUAGGGAGCGGCGUGCCGUGGGGC
Work on B10 yielded a Kd ([15]; label: 5'-FAM in EMSA, G4, heterogeneous) of 1970 ± 230 nM.

B11: FAM-NRAS mutant RNA (ssRNA)
RNA: UGUAGAAAGAGCAGAUCUAGAUGC
In the case of B11, the Kd ([14]; GQ abolished) is reported as 222 ± 9 nM and the Kd ([15]; label: 5'-FAM, GQ abolished) is reported as 6000 ± 800 nM.

B12: NRAS mutant RNA (ssRNA)
RNA: UGUAGAAAGAGCAGAUCUAGAUGC
B12: no binding ([2]; GQ abolished); no binding ([3]; GQ abolished); no binding ([4]; GQ abolished).

B13: RAC1 53-77 (structured_RNA)
RNA: GCGGAGGGCGAGGCGGCGUGGACAG
For B13, the Kd ([15]; label: 5'-FAM in EMSA, G4) was 510 ± 80 nM.

B14: ODC1 279-303 (structured_RNA)
RNA: GCUGACGGGCGCGGCGGGGGCGGCC
B14: binds [16].

B15: FAM-NRAS GQ RNA (structured_RNA)
RNA: UGUGGGAGGGGCGGGUCUGGGUGC
B15 showed a Kd ([13]; G4 monomer) of 201 ± 5 nM, a Kd ([14]; G4 monomer) of 43 ± 4 nM and a Kd ([15]; label: 5'-FAM, G4 monomer) of 54 ± 12 nM.
